Counter-ions that a name gives are not always drawn.
Assays:
BKS.Cg-Dock7m mice [1] = assay: Body weight loss in diabetic obese mice; assay type: in vivo
Experimental: (§1) BKS.Cg-Dock7m mice were treated with control and an Amylase compound according to an embodiment of the present invention. In the absence of treatment, the BKS.Cg-Dock7m mice are homozygous for the diabetes spontaneous mutation (Lepr^db) and become obese at approximately three to four weeks of age. […] At the beginning of the animal trial, the test animals were obese, severely hyperinsulemic and hyperglycemic. After 28 consecutive days of dosing, the animals were euthanized and tissue analyzed. Compounds described herein were tested against the positive control of Metformin hydrochloride (“Metformin”)
(§2) Animals were manually restrained and administered Metformin by oral gavage using a disposable gavage needle. The target dose was 5 mL/kg, and actual dose volumes ranged from 190 to 260 μL/animal.
(§3) Amylase was purchased from Abcam (product ID: ab77861) at a dilution of 340 Units/mL. Each animal was treated with Amylase to achieve a dilution of 80 Units/L of blood. The test compound was diluted in phosphate buffer saline (PBS) and each day the test animals were injected with 300 uL of the Amylase-PBS solution. For every 299.4 uL of PBS, 0.6 uL of Amylase was used to achieve a concentration of 80 Units/Liter assuming a body weight of 45 g. The aliquots were stored at −80 C.
Amylase was purchased from Abcam (product ID: ab77861) at a dilution of 340 Units/mL. Each animal was treated with Amylase to achieve a dilution of 240 Units/L of blood. The test compound was diluted in phosphate buffer saline (PBS) and each day the test animals were injected with 300 uL of the Amylase-PBS solution. For every 298.3 uL of PBS, 1.7 uL of Amylase was used to achieve a concentration of […] assuming a body weight of 45 g. The aliquots were stored at −80 degrees C.
(§4) 1× (used synonymously with TV1) and 3× (used synonymously with TV2) doses of human alpha-Amylase enzyme (referred to herein as Test Compound 1) were determined to be 80 Units/Liter of blood volume and 240 Units/Liter of blood volume respectively. Animals were manually restrained and administered a target volume of 300 μL of phosphate buffered saline (PBS) (vehicle), by IP injection, once per day, on Days 1-28. Actual dose volumes changed throughout the study and ranged from 300 to 310 μL. Endpoints include daily clinical observations and body weights. Creatinine, insulin, Protein Urea/Creatinine levels, clinical pathology and gross pathology at necropsy were also obtained. The mice were euthanized and necropsied on Day 28.
Body weights were measured prior to the study for randomization. Additional weekly body weights were collected throughout the study. We also were interested in weight loss for the animals for various treatment regimens. Referring now to Table 1 weight loss data as a percent weight loss with the reference being the weight before any treatment is illustrated for each test group. […] As with the insulin data, there is a dose dependent trend between 1× and 3×. The higher dose of Test Compound 1 outperforms metformin.

BKS.Cg-Dock7m mice [2] = assay: Serum insulin ELISA in diabetic obese mice after 28 days of dosing; assay type: in vivo; conditions: for Serum insulin levels compared to vehicle control: at necropsy after 28 consecutive days, Test Compound 1 at 1× or 3× IP, Metformin oral gavage
Experimental: as §1, §2, §3
Amylase was purchased from Abcam (product ID: ab77861) at a dilution of 340 Units/mL. Each animal was treated with Amylase to achieve a dilution of 240 Units/L of blood. […]
1× (used synonymously with TV1) and 3× (used synonymously with TV2) doses of human alpha-Amylase enzyme (referred to herein as Test Compound 1) were determined to be 80 Units/Liter of blood volume and 240 Units/Liter of blood volume respectively. […]
Referring now to FIG. 9, insulin values were measured in serum from four animals from each treatment group at the time of necropsy following 28 consecutive days of dosing with Control (metformin), Test Compound 1 (SEQ ID NO 1), or vehicle alone. […] The processed plates were read using a Molecular Devices VersaMax plate reader.

BKS.Cg-Dock7m mice [3] = assay: Urine Protein Urea/Creatinine ratio; assay type: in vivo; conditions: for Nephroprotective effect: from Protein Urea to Creatinine ratio
Experimental: as §1, §4
Referring now to FIG. 11, Protein Urea/Creatinine Levels are measured and shown. Creatinine levels are directly related to muscle mass in mice and so higher Creatinine is correlated with higher muscle mass. A healthy Protein Urea to Creatinine level is 1. Higher levels imply kidney damage. […] Optimal Protein Urea: Creatinine is 1.

IgE = assay: Co-immunoprecipitation of Amylase and IgE; assay type: binding
Experimental: Referring now to FIG. 3, an immunoblot is shown having samples in lanes 1-8. The samples are prepared as follows. 10 μg of Amylase was mixed with 1 μg of IgE and incubated overnight at 4° C. and then for one hour at 37° C. Anti-Amylase antibody was used for immunoprecipitation. Anti-IgE antibody was used for immunoblotting. BSA was used as a competitive binding control. A sample with no IgE and […] of BSA+10 microgram of Amylase (lane 2) was used as negative control for immunoblotting. (Lanes 3 and 4 represent 0.5 μg BSA, lanes 5 and 6 represent 0.5 μg BSA and lanes 7 and 8 represent 0.05 μg BSA). After immunoprecipitation, pellets were dissolved in 45 microliters of Laemmli sample buffer and 15 microliters were loaded on the gel. 1 microgram of IgE was used as positive control (lane 1).
Referring now to FIG. 2, an immunoblot is shown having samples in lanes 1-8. The samples are prepared as follows.

BKS.Cg-Dock7m mice [4] = assay: Urine creatinine vs percentage of total weight loss; assay type: in vivo; conditions: 1× dose
Experimental: as §1
as §4, with “Creatinine, insulin, Protein Urea/Creatinine levels, clinical pathology and gross pathology at necropsy were also obtained. The mice were euthanized and necropsied on Day 28.” left out
The source of the weight loss, (whether fat or muscle) is physiologically critical. […] Referring now to FIG. 10, to quantify the source of the weight loss, we examined urine creatinine levels in the test animals. […]

Mast cells = assay: Histamine ELISA of IgE/anti-IgE-induced mast cell degranulation; assay type: cell-based; conditions: for Histamine release (ELISA): 1× (100 Units/L) and 10× (1000 Units/L) Amylase, IgE + anti-IgE
Experimental: Referring now to FIG. 1, Mast cells were treated with IgE, anti-IgE and varying doses of alpha-Amylase in a medium that would permit binding. In this experiment, Mast cells were grown to confluence, harvested and resuspended in 8 ml PBS and a 3 ml aliquot was plated in triplicate. 0.29 ml (100 Units) of Amylase was added to 0.7 mL PBS bringing the total volume to 1 mL. 3 μL was used in the 1× Amylase dose and 30 μL was used in the 10× Amylase dose. 1 set of triplicates was incubated with 1× Amylase (100 Units/L) and the second set with 10× Amylase (1000 Units/L). After 10 minutes, 250 μL of IgE was added, and then 200 μL of anti-IgE. The cells were incubated at 37 degrees Celsius during this time. 50 μL was taken at 1 hour, 2.5 hours and 4 hours and subjected to histamine level analysis via ELISA. A control set was co-incubated with PBS.
Anti-IgE when added to IgE-incubated Mast cells causes degranulation. Histamine release occurs during degranulation. Measurements were taken from all three subsets at 1 hour, 2.5 hours and 4 hours and subjected to analysis of histamine levels by ELISA from Oxford Biolabs. FIG. 1 is a graph of the results of an ELISA in which histamine levels are measured. Higher absorbance rates correlate to lower levels of Histamine.
Degranulation based upon the Immunoglobulin-E (IgE)-Anti-IgE reaction is well documented in the literature. Histamine levels were detected by an ELISA kit and served as a marker for degranulation. […] This implies that cellular degranulation was prevented in a time and dose-dependent manner by the addition of Amylase.

[5] = Metformin positive control, oral gavage
[6] = 1X dose (80 Units/Liter of blood volume) IP daily
[7] = 3X dose (240 Units/Liter of blood volume) IP daily

With `CN(C)C(=N)N=C(N)N` [Metformin, Metformin hydrochloride, reference compound] the “Body Weight % Lost, % Weight loss n = 4” value (BKS.Cg-Dock7m mice [1]; [5]) was 7%, the “Body Weight % Lost, % Weight loss n = 6” value (BKS.Cg-Dock7m mice [1]; [5]) was 6.9% and the “Body Weight % Lost, % Weight loss raw” value (BKS.Cg-Dock7m mice [1]; [5]) was 7.4%. The “Serum insulin levels compared to vehicle control” value (BKS.Cg-Dock7m mice [2]) was “moderate decreases in serum insulin levels compared to vehicle control animals” and the Nephroprotective effect (BKS.Cg-Dock7m mice [3]) was “nephroprotective”.

B1: Test Compound 1: human alpha-Amylase enzyme (SEQ ID NO 1, pancreatic Amylase alpha 2A), purchased from Abcam (product ID: ab77861) (protein)
chain: QYSPNTQQGRTSIVHLFEWRWVDIALECERYLAPKGFGGVQVSPPNENVAIYNPFRPWWERYQPVSYKLCTRSGNEDEFRNMVTRCNNVGVRIYVDAVINHMCGNAVSAGTSSTCGSYFNPGSRDFPAVPYSGWDFNDGKCKTGSGDIENYNDATQVRDCRLTGLLDLALEKDYVRSKIAEYMNHLIDIGVAGFRLDASKHMWPGDIKAILDKLHNLNSNWFPAGSKPFIYQEVIDLGGEPIKSSDYFGNGRVTEFKYGAKLGTVIRKWNGEKMSYLKNWGEGWGFVPSDRALVFVDNHDNQRGHGAGGASILTFWDARLYKMAVGFMLAHPYGFTRVMSSYRWPRQFQNGNDVNDWVGPPNNNGVIKEVTINPDTTCGNDWVCEHRWRQIRNMVIFRNVVDGQPFTNWYDNGSNQVAFGRGNRGFIVFNNDDWSFSLTLQTGLPAGTYCDVISGDKINGNCTGIKIYVSDDGKAHFSISNSAEDPFIAIHAESKL
modifications: homo sapien
B1 was tested, and the “Body Weight % Lost, % Weight loss n = 4” value (BKS.Cg-Dock7m mice [1]; [6]) was 5%, the “Body Weight % Lost, % Weight loss n = 6” value (BKS.Cg-Dock7m mice [1]; [6]) was 5.2% and the “Body Weight % Lost, % Weight loss raw” value (BKS.Cg-Dock7m mice [1]; [6]) was 5.5%. For the same molecule, the “Weight loss compared with metformin” value (BKS.Cg-Dock7m mice [1]; 1× and 3× doses) was “dose-dependency in weight loss with our 1× of Test Compound 1 and 3× of Test Compound 1 doses outperforming metformin”, the “Body Weight % Lost, % Weight loss n = 4” value (BKS.Cg-Dock7m mice [1]; [7]) was 10% and the “Body Weight % Lost, % Weight loss n = 6” value (BKS.Cg-Dock7m mice [1]; [7]) was 8.3%. For the same molecule, the “Body Weight % Lost, % Weight loss raw” value (BKS.Cg-Dock7m mice [1]; [7]) was 7.4%, the “Change in insulin levels” value (BKS.Cg-Dock7m mice [2]; Treatment Group 3: 3× dose (240 Units/liter of blood volume) IP, 28 days) was “did exhibit a change in insulin levels” and the “Serum insulin levels compared to vehicle control” value (BKS.Cg-Dock7m mice [2]) was “moderate decreases in serum insulin levels compared to vehicle control animals”. For the same molecule, the “Amylase co-immunoprecipitation with IgE” value (IgE; 1 μg IgE + 0.5, 5, 10 μg Amylase, anti-IgE immunoprecipitation, anti-Amylase immunoblot) was “binding of Amylase and IgE was observed to behave in a dose-dependent manner”, the “IgE co-immunoprecipitation with Amylase” value (IgE; 10 μg Amylase + 1 μg IgE, anti-Amylase immunoprecipitation, anti-IgE immunoblot, BSA as competitive binding control) was “IgE immunoprecipitated with Amylase under conditions of increasing concentrations of BSA, demonstrating little non-specific binding” and the “Source of the weight loss (fat or muscle) from urine creatinine” value (BKS.Cg-Dock7m mice [4]) was “the majority of weight lost is fat content and muscle mass is preserved”. For the same molecule, the Nephroprotective effect (BKS.Cg-Dock7m mice [3]) was “nephroprotective”, the “Protein Urea to Creatinine ratio in urine” value (BKS.Cg-Dock7m mice [3]; treatment group 2 (1× dose) vs group 4 (metformin) and group 1 (vehicle)) was “lower Protein Urea to Creatinine ratio compared to urine from animals in treatment group 4 or animals in treatment group 1” and the “Histamine release (ELISA)” value (Mast cells; 1 hour, vs PBS control) was “the levels of Histamine released in the 1× and 10× doses were the same, with higher release in the negative control”. The “Histamine release (ELISA)” value (Mast cells; 2.5 hours) was “dose dependency with less histamine release compared to 1 hour”, the “Histamine release (ELISA)” value (Mast cells; 4 hours) was “greater histamine release in the 1× and 10× doses” and the “Histamine levels as marker for degranulation” value (Mast cells; overall, samples treated with Amylase, 1 to 4 hours, 1× and 10×) was “lower in a manner that was both time and dose dependent”.

From patent publication US20130273026A1, “COMPOSITION AND METHOD FOR MODULATING INFLAMMATORY MOLECULES WITH AMYLASE” (INTEGRATIVE ENZYMATICS, INC., priority 2012, published 2013)
